Data from US20200155643.

Target: Recombinant human protein C inhibitor (PCI, SERPINA5) (UniProt P05154)
Sequence (P05154 20-406): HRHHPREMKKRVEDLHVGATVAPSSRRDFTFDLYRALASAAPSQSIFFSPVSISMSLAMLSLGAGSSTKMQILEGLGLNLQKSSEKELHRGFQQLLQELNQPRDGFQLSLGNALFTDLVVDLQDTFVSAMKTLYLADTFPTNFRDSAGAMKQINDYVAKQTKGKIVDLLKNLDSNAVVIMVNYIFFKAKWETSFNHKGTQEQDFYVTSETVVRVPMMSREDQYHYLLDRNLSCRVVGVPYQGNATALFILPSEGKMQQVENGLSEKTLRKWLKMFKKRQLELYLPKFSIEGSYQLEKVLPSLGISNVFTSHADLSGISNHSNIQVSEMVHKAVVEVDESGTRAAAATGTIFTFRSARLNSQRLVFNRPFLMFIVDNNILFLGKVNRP

Recombinant human hepsin (R&D Systems 4776-SE-10)
cleavage of PCI (anti-PCI immunoblot): resulted in the appearance of cleaved forms of PCI

Recombinant mouse testisin (R&D Systems 6820-SE-10)
cleavage of PCI (anti-PCI immunoblot): PCI is a substrate for testisin ... testisin cleaves PCI at a second site
